Experimental data published in US20240173352A1.

What was measured:
[1] = target: HLA-A*02 (on target cells) (human); assay: cell-based or functional assay
[2] = target: HLA-A*02 blocker antigen on beads (human); assay: cell-based or functional assay

Emax shift of the CD19-CAR activator in Jurkat cells [1]: > 10 fold
inhibition of IFNγ induction in primary T cells (MSLN CAR), HeLa target cells expressing HLA-A*02 [1]: > 5 fold
inhibition of IFNγ induction in primary T cells (MSLN CAR), SiHa target cells expressing HLA-A*02 [1]: > 10 fold
shift of the CD19 CAR EMAX, NALM6 target cells [1]: > 5 fold
shift of the EGFR CAR (CT479) EMAX, Jurkat NFAT-luciferase, HLA-A*02 transduced HeLa target cells [1]: > 5 fold
shift of the EGFR CAR EMAX, HeLa target cells [1]: > 5 fold
shift of the EGFR CAR EMAX, Jurkat NFAT-luciferase, HCT116 target cells [1]: 1.8 fold
shift of the EGFR CAR EMAX, SiHa target cells [1]: > 4 fold
shift of the MSLN CAR EMAX, K562 target cells [1]: > 5 fold
suppression of pan HLA scFv CAR activators, HLA-A*02-positive T2 cells, E:T 1:2 [1]: < 25 fold
shift of the EGFR CAR EMAX, cell-free bead assay [2]: > 9 fold
shift of the MSLN CAR EMAX, cell-free bead assay [2]: > 12 fold
Substance: HLA-A*02 PA2.1 ScFv LIR1 inhibitor (C1765) (from UniProt Q8NHL6 399-650) (receptor)
